Measurements published in patent publication US20080085266A1.

Molecular target: ICAM-1 (human) (UniProt P05362)
Assay: cell-based or functional assay

ICAM-1 (human), sequence (P05362 28-532): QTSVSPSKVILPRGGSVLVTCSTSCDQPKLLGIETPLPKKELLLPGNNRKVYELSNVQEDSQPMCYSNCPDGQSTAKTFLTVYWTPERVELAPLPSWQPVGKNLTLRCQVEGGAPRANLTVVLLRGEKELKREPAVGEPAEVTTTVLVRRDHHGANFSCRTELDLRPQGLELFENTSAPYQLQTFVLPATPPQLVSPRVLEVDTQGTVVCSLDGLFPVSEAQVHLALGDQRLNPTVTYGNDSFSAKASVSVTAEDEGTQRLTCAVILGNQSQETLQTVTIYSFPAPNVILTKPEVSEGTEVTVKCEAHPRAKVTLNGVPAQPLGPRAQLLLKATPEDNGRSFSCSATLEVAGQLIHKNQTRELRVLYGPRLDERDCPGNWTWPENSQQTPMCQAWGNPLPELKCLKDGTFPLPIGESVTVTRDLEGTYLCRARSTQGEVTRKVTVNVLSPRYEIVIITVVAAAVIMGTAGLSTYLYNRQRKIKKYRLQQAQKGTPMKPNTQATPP

Question: For “CD11a (LFA-1) (from UniProt P20701 26-1170) (receptor)”, which inhibition of tumor lysis by peptide specific CTLs with anti-CD11a (LFA-1) MAb, tumor cells after IFN-gamma exposure is on record?
Answer: 60 to 86%
